Assays:
Experiment in all cases: ITC; PRPF40A construct (WW12, N-ext-WW12 or its mutant) in the cell, GB1-SF1 or GB1-SF3A1 construct in the syringe (as shown in Supplementary Figures 16 and 21); 25 °C, 20 mM sodium phosphate pH 6.5, 100 mM NaCl; one-site binding model; at least duplicates; affinities apparent
Details in all cases: both partners purified
[1] = molecular target: T1, GB1-SF1 Pro BCD (residues 468-639) (UniProt Q15637 468-639)
T1 construct: splicing factor 1 (SF1), residues 468-639; His6-GB1-TEV site cassette of the pET24 vector, not cleaved; source: E. coli BL21(DE3), purified (Ni-NTA, SEC); not shown: GB1, N-terminal, kept
T1 sequence (looked up): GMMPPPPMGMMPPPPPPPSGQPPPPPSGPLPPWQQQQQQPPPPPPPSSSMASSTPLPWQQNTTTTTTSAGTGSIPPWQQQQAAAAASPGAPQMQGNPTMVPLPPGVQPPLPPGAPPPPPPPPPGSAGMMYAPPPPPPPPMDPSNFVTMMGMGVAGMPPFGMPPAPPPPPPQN

[2] = molecular target: T2, GB1-SF1 Pro BC (residues 468-594) (UniProt Q15637 468-594)
T2 construct: splicing factor 1 (SF1), residues 468-594; His6-GB1-TEV site cassette of the pET24 vector, not cleaved; also called SF1 BC; source: E. coli BL21(DE3), purified (Ni-NTA, SEC); not shown: GB1, N-terminal, kept
T2 sequence (looked up): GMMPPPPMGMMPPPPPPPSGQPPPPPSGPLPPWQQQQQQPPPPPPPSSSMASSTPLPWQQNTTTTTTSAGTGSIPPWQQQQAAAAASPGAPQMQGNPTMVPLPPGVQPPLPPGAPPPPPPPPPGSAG

[3] = molecular target: T3, GB1-SF1 Pro ABCD (residues 410-639) (UniProt Q15637 410-639)
T3 construct: splicing factor 1 (SF1), residues 410-639, the complete proline-rich C-terminal region; His6-GB1-TEV site cassette of the pET24 vector, not cleaved; source: E. coli BL21(DE3), purified (Ni-NTA, SEC); not shown: GB1, N-terminal, kept
T3 sequence (looked up): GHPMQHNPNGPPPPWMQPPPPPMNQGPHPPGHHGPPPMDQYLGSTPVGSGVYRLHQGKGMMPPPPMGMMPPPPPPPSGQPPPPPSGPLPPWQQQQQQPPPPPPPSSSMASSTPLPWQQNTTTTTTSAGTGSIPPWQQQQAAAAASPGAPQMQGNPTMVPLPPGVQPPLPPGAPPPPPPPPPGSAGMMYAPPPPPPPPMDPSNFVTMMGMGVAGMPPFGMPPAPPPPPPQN

[4] = molecular target: T4, GB1-SF1 Pro CD (residues 539-639) (UniProt Q15637 539-639)
T4 construct: splicing factor 1 (SF1), residues 539-639; His6-GB1-TEV site cassette of the pET24 vector, not cleaved; source: E. coli BL21(DE3), purified (Ni-NTA, SEC); not shown: GB1, N-terminal, kept
T4 sequence (looked up): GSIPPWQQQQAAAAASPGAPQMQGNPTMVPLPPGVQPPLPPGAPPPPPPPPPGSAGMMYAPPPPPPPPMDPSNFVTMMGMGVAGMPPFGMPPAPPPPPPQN

[5] = molecular target: T5, GB1-SF3A1 C-ter Pro (residues 552-683) (UniProt Q15459 552-683)
T5 construct: His6-GB1-TEV site cassette of the pET24 vector, not cleaved; source: E. coli BL21(DE3), purified (Ni-NTA, SEC); not shown: GB1, N-terminal, kept
T5 sequence (looked up): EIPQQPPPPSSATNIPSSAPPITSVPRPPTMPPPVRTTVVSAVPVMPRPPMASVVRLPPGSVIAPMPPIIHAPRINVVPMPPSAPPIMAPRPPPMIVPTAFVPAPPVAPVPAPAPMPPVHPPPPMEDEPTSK

B1: PRPF40A WW12 (tandem WW domains, residues 141-236) (domain or fragment, human, UniProt O75400 141-236, looked up)
chain: GAKSMWTEHKSPDGRTYYYNTETKQSTWEKPDDLKTPAEQLLSKCPWKEYKSDSGKPYYYNSQTKESRWAKPKELEDLEGYQNTIVAGSLITKSNL
notes: A few vector residues probably remain at the N-terminus after TEV cleavage (pETM11, NcoI site); 15N-labelled in the NMR experiments; also called PRPF40A WW tandem; WW12 wt; source: E. coli BL21(DE3), purified (Ni-NTA, TEV digestion, reverse Ni-NTA, SEC); not shown: His6, N-terminal, cleaved
Question: Which Kd [1] does the source give for B1 here?
Answer: Its Kd is 3.65 ± 0.71 µM.

Question: And the Kd [2]?
Answer: The Kd was 6.83 ± 2.33 µM.

Question: What about the Kd [3] of the same binder?
Answer: The Kd was 4.91 ± 0.51 µM.

Question: What about the Kd [4] of the same binder?
Answer: The Kd was 3.8 ± 0.69 µM.

Question: What about the Kd [5] of the same binder?
Answer: The Kd was 19.3 ± 4.5 µM.

Source: paper PMC11079029, “Intramolecular autoinhibition regulates the selectivity of PRPF40A tandem WW domains for proline-rich motifs” (Nature Communications, 2024)
